In assay [1] the target is carboxymethyl lysine conjugated to keyhole limpet hemocyanin (CML-KLH). Kind of assay: direct binding ELISA, CML-KLH coat 1 µg/mL, antibody at 50 µg/mL. A general note: In an ELISA, binding on a coated surface is turned into a signal by an enzyme label.
Assay [2] shares this target. Kind of assay: direct binding ELISA, CML-KLH coat 1 µg/mL, antibody at 0.07 µg/mL.
Assay [3] shares this target. Kind of assay: direct binding ELISA, CML-KLH coat 1 µg/mL, antibody at 0.21 µg/mL.
For assay [4] the target is unchanged. Kind of assay: direct binding ELISA, CML-KLH coat 1 µg/mL, antibody at 0.62 µg/mL.
Assay [5] has the same target. Kind of assay: direct binding ELISA, CML-KLH coat 1 µg/mL, antibody at 1.85 µg/mL.
Assay [6] has the same target. Kind of assay: direct binding ELISA, CML-KLH coat 1 µg/mL, antibody at 5.56 µg/mL.
The target is the same in assay [7]. Kind of assay: direct binding ELISA, CML-KLH coat 1 µg/mL, antibody at 16.67 µg/mL.
Assay [8] has the same target. Kind of assay: direct binding ELISA, CML-KLH coat 1 µg/mL, antibody at 0 µg/mL (buffer control well, background).

In the case of “carboxymethyl lysine MAb (Clone 318003), R&D Systems, Inc., catalog no. MAB3247 (antibody)”, the OD450 in assay [1] amounted to 0.462 OD450; in assay [2] it was 0.086 OD450; in assay [3], 0.075 OD450; in assay [4], 0.083 OD450; in assay [5], 0.092 OD450; in assay [6], 0.165 OD450. Moreover, the OD450 is 0.312 OD450 in assay [7] and 0.09 OD450 in assay [8].

These data come from patent publication US20210253737A1.
